Assay: yeast display, Sf9 membrane polyspecificity reagent, FACS + sequencing; frameworks hold sequencing errors
How it was run: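 Sorting gates, low and high (top ~1%), were placed on anti-HA fluorescence to track expression and on streptavidin fluorescence to track reagent binding. A clone's polyreactivity label is taken from the gate it came out of. The reagent was 10% biotinylated, detergent-solubilized Sf9 membrane, applied for 1 hour at 4 °C to galactose-induced yeast display cells.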

| Sequence | polyreactivity (PSR sort gate) |
| --- | --- |
| EEELVDSGGGLVQAGGSLRLSCSAYGSTFRDYAMGWYRQAPGKERELVAAITSGGTTDYADSVKGRFPISRDNAKNTVYLQMNSLKPEDTAVYYCNKDGVVAGYQYDYWGQGTQVTVSS | low polyreactivity |
| EEELVESGGGLVQAGCSLRLSCAATGSTIIWNAMGWYIQAPGKERELVAAITRSGGRTYYADSVKGRFTISRDNAKNTVYLLMNSLIPEDTAVYYCAAVIWGYYYGGKYVYYYPYGYWGQGTQVTVSS | high polyreactivity |
| EEELVESGGGLVQAGGSLRLSCAASGRTFARNAMGWYRQAPGKERELVAGINFSGGNTYYADSVKGRFTISRDNAKNTVYLQMNSLKPEDTAVYYCAARRYWEGDYWGHGTQVTVSS | low polyreactivity |
| EEELVESGGGLVQAGGSLRLSCAASGSIFVVNAMGWYRQAPGKERELVAAISRGGITNYADSVKGRFTISRDNAKNTVYLQMNSLKPEDTAVYYCNARGSRWVKPERDYWGQGTQVTVSS | low polyreactivity |
| EVQHVESGGGLVQAGGSLRLSCAASGSTFYENAMGWYRQAPGKERELVAAINWSGGRTYYADSVKGRFTISRDNAKNTVNLQMNCLKQEYTAVYYCATREYRYAHSYYWGQGTQVTVSS | high polyreactivity |
| EVQLVESGGGLVQAGGSLRLSCAASGYSFSYNTMGWYRQAPGKERELVAAITRSGGSTYYADSVKGRFTISRDNAKNTVYLQMNSLKPEDTAVYYCNRVGWRGLKKANYWGQGTQVTVSS | high polyreactivity |
| EVQLVESGGGLVQPGGSLRLSCAASGYIYRRYRMGRYRQAPGKGREFVAAISGGSSTNYADSVKGRFTNSRDNSKNTVYLQMNSLRAEDTAVYYCAAYKIDSDPRVYWGQGTQVTVSS | low polyreactivity |
| FVQAGGSLRLTCAASGSTFYGNAMGWYRQATGKERELVAGITGDGGSTYYADSVKGRFTISRDNAKNTVYLQMNSLKPEDTAVYYCAVDVIVLGQWPRQLDEFDYWGQGTQVTVSS | low polyreactivity |
| HDQHVESGGGLVQAGGSLRLSCAASGFTFYFYTMGWYRQAPGKERELVAAITGSGGSTYYADSVKARFTFSRDNAKNTVYLQMNSLKPEDTAVYYCAASYYPERVATWRGYYYWGQGTQVTVSS | high polyreactivity |
| HVHLVESGGGLVQAGGSLPLSCAASGFIISHYTMGWYRQAPGKERELVAGISWSGGNTYYADFVKGRFTISRDHAKNTVYLQMNSLKPEDTAVYYCNADWIGVPLAYDYWGQGTQVTVSS | low polyreactivity |
| HVQHVESAGGLVQAGGSLRLSCAASGSIFTYNALGGYIQAPGKERELVAAIDYSGGSTYYADSVKGRFTISRDNAKNTVYLQMNSLKPEDTAVYYCAAPWVPYPGYSLYGYDYWGQGTQVTVSS | low polyreactivity |
| HVQHVESGGGLVQAGGSLRLSCAASGRIFRPNAMGRYRQAPGKERELVAAITSNGGRTYYADSVKGRFTISRDNAKTTVYLQMTSQKPEDTAVYYCNAAPFRSGYGYWGQGTQVNVSS | high polyreactivity |
| HVQLEESGGGLVQAGGSLRLSCAASGFTFNRYAMGWYRQAPGKERELVAAISSGGRTYYADSVKGRFTISRDNAKNTVYLQMNRLKPDDTAVYYCAADWSLYSHEFDYWGQGTQVTVSS | high polyreactivity |
| HVQLGESGGGLVQAGGSLRLSCAASGFIFDVYAMGWYRQAPGKERELVAAISSSGGRTYYADSVKGRFTISRDNAKNTVYLQMNSLKPEDTAVYYCAAKTHSRTKVYTADYWGQGTQVTVSS | high polyreactivity |
| HVQLQESGGGLVQAGGSLRLSCAASGSIFQATYMGWYRQAPGKEREFVASITYGSITNYADSVKGRFTIGRDNAKDTLYLQMNSLKPEDTAVYYCAVDRHYIPAFHYWGQGTEVTVSS | low polyreactivity |
| HVQLQESGRRPGAAGGSPRMSCAASGNIYWVAVMGRYRQAPGEERELVASIGFGCTTYYADSVKCRFTISRDNAKNTVYLQMISLKPEDTAVYYCAAPHYDWGELDYWGQGTQVPVSS | low polyreactivity |
| HVQLQESGVGLVQAGGSLRLSCAASGTISQEYWMGWYRQAPGKEREFVAAIGLGSNTNYADSLKGRFTISRDNSTNTVFLQMNSLKPEDTAVYYCAVSVWQYSDHVYRGQGTQVTVSS | low polyreactivity |
